Reference: patent US20240182536A1 (MURAL ONCOLOGY, published 2024)
Residue numbers refer to the chain shown, from its start.

T1: WT human IL-18 (human, UniProt Q14116 37-193)
T1 sequence: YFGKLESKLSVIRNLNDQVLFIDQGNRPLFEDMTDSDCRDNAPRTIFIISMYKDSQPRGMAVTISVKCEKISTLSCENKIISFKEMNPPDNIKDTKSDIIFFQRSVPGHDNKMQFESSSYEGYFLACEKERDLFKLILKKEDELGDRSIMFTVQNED

T2: IL-18 variant G3R, K53S (human, UniProt Q14116 37-193)
T2 chain: T1 sequence with G3R, C38M, K53S, C68S, C76S, C127S

T3: IL-18 variant G3T, M60K (human, UniProt Q14116 37-193)
T3 chain: T1 sequence with G3T, C38M, M60K, C68S, C76S, C127S

T4: IL-18 variant G3V, M60K (human, UniProt Q14116 37-193)
T4 chain: T1 sequence with G3V, C38M, M60K, C68S, C76S, C127S

T5: IL-18 variant G3T, M60K, D157E (human, UniProt Q14116 37-192)
T5 chain: T1 sequence with G3T, C38M, M60K, C68S, C76S, C127S, D157E

T6: IL-18 variant G3E, K53S (human, UniProt Q14116 37-193)
T6 chain: T1 sequence with G3E, C38M, K53S, C68S, C76S, C127S

T7: IL-18 variant G3T, K53S (human, UniProt Q14116 37-193)
T7 chain: T1 sequence with G3T, C38M, K53S, C68S, C76S, C127S

T8: IL-18 variant G3H, N91V, K53S (human, UniProt Q14116 37-193)
T8 chain: T1 sequence with G3H, C38M, K53S, C68S, C76S, N91V, C127S

B1: mouse IL-18BP (other, UniProt Q9Z0M9 29-193, looked up)
chain: TSAPQTTATVLTGSSKDPCSSWSPAVPTKQYPALDVIWPEKEVPLNGTLTLSCTACSRFPYFSILYWLGNGSFIEHLPGRLKEGHTSREHRNTSTWLHRALVLEELSPTLRSTNFSCLFVDPGQVAQYHIILAQLWDGLKTAPSPSQETLSSHSPVSRSAGPGVA
B2: human IL-18 binding protein (IL-18BP) (other, UniProt O95998 31-194, looked up)
chain: TPVSQTTTAATASVRSTKDPCPSQPPVFPAAKQCPALEVTWPEVEVPLNGTLSLSCVACSRFPNFSILYWLGNGSFIEHLPGRLWEGSTSRERGSTGTQLCKALVLEQLTPALHSTNFSCVLVDPEQVVQRHVVLAQLWAGLRATLPPTQEALPSSHSSPQQQG

What was measured:
Assay in all cases: cell-based or functional assay
WT human IL-18 [1] = biological target: T1, WT human IL-18
IL-18 variant G3R, K53S = biological target: T2, IL-18 variant G3R, K53S
WT IL-18-MonoFc = WT IL-18-MonoFc (human)
IL-18 variant G3T, M60K = biological target: T3, IL-18 variant G3T, M60K
IL-18 variant G3V, M60K = biological target: T4, IL-18 variant G3V, M60K
[2] = biological target: T5, IL-18 variant G3T, M60K, D157E
WT human IL-18 [3] = biological target: T1, WT human IL-18; remark: listed apart in the source
IL-18 variant G3E, K53S [4] = biological target: T6, IL-18 variant G3E, K53S
IL-18 variant G3T, K53S = biological target: T7, IL-18 variant G3T, K53S
[5] = biological target: T8, IL-18 variant G3H, N91V, K53S
WT human IL-18 [6] = biological target: T1, WT human IL-18; remark: listed apart in the source
IL-18 variant G3E, K53S [7] = biological target: T6, IL-18 variant G3E, K53S
[8] = biological target: T8, IL-18 variant G3H, N91V, K53S

Sequence of WT IL-18-MonoFc (human) (chain, as listed by the source): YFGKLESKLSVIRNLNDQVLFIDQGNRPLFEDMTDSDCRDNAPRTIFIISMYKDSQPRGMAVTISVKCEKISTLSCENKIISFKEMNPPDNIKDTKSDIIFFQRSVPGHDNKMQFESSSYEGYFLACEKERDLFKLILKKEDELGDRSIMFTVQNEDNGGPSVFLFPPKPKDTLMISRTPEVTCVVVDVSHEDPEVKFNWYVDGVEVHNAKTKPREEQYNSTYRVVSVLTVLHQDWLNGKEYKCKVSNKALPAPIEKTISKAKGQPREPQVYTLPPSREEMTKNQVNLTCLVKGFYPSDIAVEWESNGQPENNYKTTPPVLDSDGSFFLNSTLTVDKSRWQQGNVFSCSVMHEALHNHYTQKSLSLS

Row | Binder | IC50 (read off the curve); IFN gamma from human PBMCs, WT IL-18 at 200 pM, mouse IL-18BP titrated (WT human IL-18 [1]) | IC50 (read off the curve); IFN gamma from human PBMCs, G3R/K53S at 200 pM, mouse IL-18BP titrated; partial inhibition (IL-18 variant G3R, K53S) | Potency - with IL-18BP (IC50), IFN gamma expression in PBMCs (WT IL-18-MonoFc) | Potency - with IL-18BP (IC50), IFN gamma expression in PBMCs (IL-18 variant G3T, M60K) | Potency - with IL-18BP (IC50), IFN gamma expression in PBMCs (IL-18 variant G3V, M60K) | Potency - with IL-18BP (IC50), IFN gamma expression in PBMCs [2] | Potency - with IL-18BP (IC50), IFN gamma expression in PBMCs (WT human IL-18 [3]) | Potency - with IL-18BP (IC50), IFN gamma expression in PBMCs (IL-18 variant G3E, K53S [4]) | Potency - with IL-18BP (IC50), IFN gamma expression in PBMCs (IL-18 variant G3T, K53S) | Potency - with IL-18BP (IC50), IFN gamma expression in PBMCs [5] | IC50 (read off the curve); IFN gamma from human PBMCs, WT IL-18 at 200 pM, human IL-18BP titrated (WT human IL-18 [6]) | IC50 (read off the curve); IFN gamma from human PBMCs, G3E/K53S at 2000 pM, human IL-18BP titrated; partial inhibition (IL-18 variant G3E, K53S [7]) | IC50 (read off the curve); IFN gamma from human PBMCs, G3H/K53S/N91V at 1000 pM, human IL-18BP titrated; partial inhibition [8]
1 | B1 | ~2000 pM | ~10000 pM | – | – | – | – | – | – | – | – | – | – | –
2 | B2 | – | – | 0.096 nM | > 100 nM | > 100 nM | > 100 nM | 0.096 nM | 0.925 nM | 15.3 nM | 24.3 nM | ~100 pM | ~1000 pM | ~20000 pM
